Results published in PMC6282759, “FlhF(T368A) modulates motility in the bacteriophage carrier state of Campylobacter jejuni” (Molecular Microbiology, 2018).

System: Nc1nc2c(ncn2[C@@H]2O[C@H](COP(=O)(O)OP(=O)(O)OP(=O)(O)O)[C@@H](O)[C@H]2O)c(=O)[nH]1
Assay: purified protein
Conditions: 42 °C, Tris buffer, MgCl2, GTP 0.05-1 mM

FlhF (Campylobacter jejuni subsp. jejuni NCTC 11168 = ATCC 700819)
Km: 75 µM | kcat: 0.0115 s⁻¹
